Target: the molecule itself
Test: SEC; Superdex-75 PC 3.2/30, calibrated with mass standards; 20 mM Na-phosphate pH 7.8, no GdnHCl; protein 0.1-0.2 mg/ml; monomer to dimer

B1: recombinant bovine odorant-binding protein (natural protein)
chain: AQEEEAEQNLSELSGPWRTVYIGSTNPEKIQENGPFRTYFRELVFDDEKGTVDFYFSVKRDGKWKNVHVKATKQDDGTYVADYEGQNVFKIVSLSRTHLVAHNINVDKHGQTTELTELFVKLNVEDEDLEKFWKLTEDKGIDKKNVVNFLENEDHPHPE
notes: PDB 1OBP is the cited crystal structure of the native tissue-extracted bOBP dimer (domain-swapped); also called bOBP; recombinant bOBP; source: E. coli BL21(DE3), plasmid pT7-7-bOBP, purified (Ni-agarose, HisGraviTrap)
For B1, the “stoichiometry N” value was 2.

Source: article PMC3883677, “The Quaternary Structure of the Recombinant Bovine Odorant-Binding Protein Is Modulated by Chemical Denaturants” (PLoS ONE, 2014)
